The values below are quoted from earlier work in paper PMC9696605.

This data set addresses Fyn SH3 (Homo sapiens) (UniProt P06241).

Fyn SH3 (Homo sapiens), sequence (P06241 79-146): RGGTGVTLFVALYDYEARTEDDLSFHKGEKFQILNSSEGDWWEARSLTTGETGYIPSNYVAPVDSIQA
MBP, sequence (P02686 whole entry): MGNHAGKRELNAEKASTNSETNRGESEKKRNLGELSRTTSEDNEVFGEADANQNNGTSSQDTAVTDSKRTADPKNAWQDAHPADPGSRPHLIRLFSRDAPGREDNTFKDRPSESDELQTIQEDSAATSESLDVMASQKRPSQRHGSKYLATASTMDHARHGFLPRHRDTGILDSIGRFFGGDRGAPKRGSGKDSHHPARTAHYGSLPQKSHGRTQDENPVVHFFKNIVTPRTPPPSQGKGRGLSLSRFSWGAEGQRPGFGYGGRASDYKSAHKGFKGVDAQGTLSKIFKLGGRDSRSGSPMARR

The term Kd denotes the free concentration of one partner at which half of the binding sites on the other are occupied at equilibrium, for simple one-to-one binding. Regarding MBP (from UniProt P02686), the Kd was 6 µM.
